Key:
[1] = promoter strength, Registry of Standard Biological Parts (Anderson collection); cited from earlier work
[2] = system: Kan^R gene with ACG in place of ATG start codon on reporter plasmid; test: Start codon reversion mutation assay, kanamycin resistance (on-target); type: cell-based, E. coli; details: 24 h growth
Procedure: (§1) Mutation assay: To test mutagenesis rates, the control and mutagenic strains (Strep^R) carrying reporter plasmids (Amp^R) were streaked out on LB agar with 100 μg/mL streptomycin and 100 μg/mL ampicillin and grown at 37° C. for 24 hours. Then single colonies were picked in triplicate for each sample and grown in 5 mL LB with 100 μg/mL streptomycin,100 μg/mL ampicillin and 25 mM arabinose (with 10 μg/mL chloramphenicol if the strain contains MP6) at 37° C., 250 r.p.m. for 24 hours. Then 1 mL aliquots of each overnight were pelleted at 6000×g for 3 minutes and resuspended in 1 mL LB to remove arabinose. Then 50 μL of each resuspension was plated on LB agar plates with 50 μg/mL tetrazolium chloride and 200 μg/mL kanamycin, 20 μg/mL tetracycline, 100 μg/mL fosfomycin or 100 μg/mL rifampicin unless otherwise stated. 50 μL of a 100,000-fold dilution of each culture was also plated on LB agar with 100 μg/mL streptomycin, 100 μg/mL ampicillin and 50 μg/mL tetrazolium chloride. After incubating the plates at 37° C. for 48 hours, they were imaged by inverting the plates onto transparencies and scanning on a document scanner at a resolution of 400 d.p.i. The colonies were then counted using the software OpenCFU (3.9.0) (Geissmann Q., PLoS One. 2013; 8(2): e54072), with minimum colony radius set to 3, the maximum colony radius set to 50 and the regular threshold set to 4.
(§2) Mutation Assay: To assess mutagenesis rates, the control (Δung, rApo1, drApo1, and drApo1−T7; TABLE 8) and mutagenic strains (MutaT7 and MP6; TABLE 8) (Strep^R) carrying reporter plasmids (AmpR) were streaked on LB agar with 100 μg/mL streptomycin and 100 μg/mL ampicillin and grown at 37° C. for 24 h in order to obtain clones. Single colonies were picked in triplicate for each sample and used to inoculate 5 mL LB with 100 μg/mL streptomycin, 100 μg/mL ampicillin, and 25 mM arabinose (with 10 μg/mL chloramphenicol for the MP6 strain, TABLE 8), then shaken at 250 r.p.m. and 37° C. for 24 h to accumulate mutations during growth. 1 mL aliquots of each culture were pelleted at 6000×g for 3 min and resuspended in 1 mL LB to remove arabinose. Each resuspension was plated on LB agar plates with 50 μg/mL tetrazolium chloride (a metabolic contrast dye for visualizing colonies) and the antibiotics indicated below to analyze mutation rates and viability: • 50 μL of a 100,000-fold dilution of each resuspension was plated on LB agar with 100 μg/mL streptomycin, 100 μg/mL ampicillin, and 50 μg/mL tetrazolium chloride. For samples from the MP6 strain, owing to lower growth of that strain, 50 μL of a 10,000-fold dilution of each resuspension was plated to obtain a more accurate count. The colony counts from these plates were used to calculate the cell viability (i.e., the number of live, ampicillin resistant cells) in CFU/mL for each sample (FIG. 13D). • 50 μL of each resuspension was plated on LB agar plates with 200 μg/mL kanamycin and 50 μg/mL tetrazolium chloride. The colony counts from these plates were used to calculate the number of kanamycin resistant mutants in CFU/mL for each sample (FIG. 13E). The number of kanamycin resistant mutants in CFU/mL was divided by the number of live ampicillin resistant cells in CFU/mL for each sample to obtain the kanamycin resistant mutation frequency (FIG. 13B). • 50 μL of each resuspension was plated on LB agar plates with 20 μg/mL tetracycline and 50 μg/mL tetrazolium chloride. The colony counts from these plates were used to calculate the number of tetracycline resistant mutants in CFU/mL for each sample. The number of tetracycline resistant mutants in CFU/mL was divided by the number of live ampicillin resistant cells in CFU/mL for each sample to obtain the tetracycline resistant mutation frequency (FIG. 13B). • 50 μL of each resuspension was plated on LB agar plates with 100 μg/mL rifampicin and 50 μg/mL tetrazolium chloride. […]

[3] = system: Tet^R gene with inactive ACG start codon downstream of Kan^R on reporter plasmid; test: Start codon reversion mutation assay, tetracycline resistance (downstream of target); type: cell-based, E. coli; details: 24 h growth
Procedure: as §1, §2

E. coli genome [4] = test: Off-target mutagenesis, fosfomycin resistance assay; type: cell-based; details: 24 h growth
Procedure: as §1, §2

E. coli genome [5] = test: Off-target mutagenesis, rifampicin resistance assay; type: cell-based; details: 24 h growth
Procedure: as §1, §2

E. coli = test: Cell viability (live ampicillin resistant cells) in mutation assay; type: cell-based; details: 24 h growth
Procedure: as §1
Mutation Assay: To assess mutagenesis rates, the control (Δung, rApo1, drApo1, and drApo1−T7; TABLE 8) and mutagenic strains (MutaT7 and MP6; TABLE 8) (Strep^R) carrying reporter plasmids (AmpR) were streaked on LB agar with 100 μg/mL streptomycin and 100 μg/mL ampicillin and grown at 37° C. for 24 h in order to obtain clones. Single colonies were picked in triplicate for each sample and used to inoculate 5 mL LB with 100 μg/mL streptomycin, 100 μg/mL ampicillin, and 25 mM arabinose (with 10 μg/mL chloramphenicol for the MP6 strain, TABLE 8), then shaken at 250 r.p.m. and 37° C. for 24 h to accumulate mutations during growth. […]

[6] = reporter plasmid No T7 promoter + filler DNA
[7] = reporter plasmid T7 promoter + filler DNA
[8] = reporter plasmid T7 promoter + terminator array

Question: With “BBa_J23100: Anderson collection promoter, SEQ ID NO: 2 (DNA TTGACGGCTAGCTCAGTCCTAGGTACAGTGCTAGC; listed as DNA, chemistry not fully specified)” as the molecule, how does the “Measured Strength” value [1] read?
Answer: 1

Question: For “BBa_J23101: Anderson collection promoter, SEQ ID NO: 3 (DNA TTTACAGCTAGCTCAGTCCTAGGTATTATGCTAGC; listed as DNA, chemistry not fully specified)”, which “Measured Strength” value [1] is on record?
Answer: 0.70

Question: For “BBa_J23102: Anderson collection promoter, SEQ ID NO: 4 (DNA TTGACAGCTAGCTCAGTCCTAGGTACTGTGCTAGC; listed as DNA, chemistry not fully specified)”, which “Measured Strength” value [1] is on record?
Answer: 0.86

Question: With “BBa_J23103: Anderson collection promoter, SEQ ID NO: 5 (DNA CTGATAGCTAGCTCAGTCCTAGGGATTATGCTAGC; listed as DNA, chemistry not fully specified)” as the molecule, how does the “Measured Strength” value [1] read?
Answer: 0.01

Question: Which “Measured Strength” value [1] does the source give for “BBa_J23104: Anderson collection promoter, SEQ ID NO: 6 (DNA TTGACAGCTAGCTCAGTCCTAGGTATTGTGCTAGC; listed as DNA, chemistry not fully specified)” here?
Answer: 0.72

Question: Which “Measured Strength” value [1] does the source give for “BBa_J23105: Anderson collection promoter, SEQ ID NO: 7 (DNA TTTACGGCTAGCTCAGTCCTAGGTACTATGCTAGC; listed as DNA, chemistry not fully specified)” here?
Answer: 0.24

Question: For “BBa_J23106: Anderson collection promoter, SEQ ID NO: 8 (DNA TTTACGGCTAGCTCAGTCCTAGGTATAGTGCTAGC; listed as DNA, chemistry not fully specified)”, which “Measured Strength” value [1] is on record?
Answer: 0.47

Question: For “BBa_J23107: Anderson collection promoter, SEQ ID NO: 9 (DNA TTTACGGCTAGCTCAGCCCTAGGTATTATGCTAGC; listed as DNA, chemistry not fully specified)”, which “Measured Strength” value [1] is on record?
Answer: 0.36

Question: With “BBa_J23108: Anderson collection promoter, SEQ ID NO: 10 (DNA CTGACAGCTAGCTCAGTCCTAGGTATAATGCTAGC; listed as DNA, chemistry not fully specified)” as the molecule, how does the “Measured Strength” value [1] read?
Answer: 0.51

Question: With “BBa_J23109: Anderson collection promoter, SEQ ID NO: 11 (DNA TTTACAGCTAGCTCAGTCCTAGGGACTGTGCTAGC; listed as DNA, chemistry not fully specified)” as the molecule, how does the “Measured Strength” value [1] read?
Answer: 0.04

Question: For “BBa_J23110: Anderson collection promoter, SEQ ID NO: 12 (DNA TTTACGGCTAGCTCAGTCCTAGGTACAATGCTAGC; listed as DNA, chemistry not fully specified)”, which “Measured Strength” value [1] is on record?
Answer: 0.33

Question: Which “Measured Strength” value [1] does the source give for “BBa_J23111: Anderson collection promoter, SEQ ID NO: 13 (DNA TTGACGGCTAGCTCAGTCCTAGGTATAGTGCTAGC; listed as DNA, chemistry not fully specified)” here?
Answer: 0.58

Question: Which “Measured Strength” value [1] does the source give for “BBa_J23112: Anderson collection promoter, SEQ ID NO: 14 (DNA CTGATAGCTAGCTCAGTCCTAGGGATTATGCTAGC; listed as DNA, chemistry not fully specified)” here?
Answer: 0.00

Question: With “BBa_J23113: Anderson collection promoter, SEQ ID NO: 15 (DNA CTGATGGCTAGCTCAGTCCTAGGGATTATGCTAGC; listed as DNA, chemistry not fully specified)” as the molecule, how does the “Measured Strength” value [1] read?
Answer: 0.01

Question: For “BBa_J23114: Anderson collection promoter, SEQ ID NO: 16 (DNA TTTATGGCTAGCTCAGTCCTAGGTACAATGCTAGC; listed as DNA, chemistry not fully specified)”, which “Measured Strength” value [1] is on record?
Answer: 0.10

Question: For “BBa_J23115: Anderson collection promoter, SEQ ID NO: 17 (DNA TTTATAGCTAGCTCAGCCCTTGGTACAATGCTAGC; listed as DNA, chemistry not fully specified)”, which “Measured Strength” value [1] is on record?
Answer: 0.15

Question: With “BBa_J23116: Anderson collection promoter, SEQ ID NO: 18 (DNA TTGACAGCTAGCTCAGTCCTAGGGACTATGCTAGC; listed as DNA, chemistry not fully specified)” as the molecule, how does the “Measured Strength” value [1] read?
Answer: 0.16

Question: For “BBa_J23117: Anderson collection promoter, SEQ ID NO: 19 (DNA TTGACAGCTAGCTCAGTCCTAGGGATTGTGCTAGC; listed as DNA, chemistry not fully specified)”, which “Measured Strength” value [1] is on record?
Answer: 0.06

Question: For “BBa_J23118: Anderson collection promoter, SEQ ID NO: 20 (DNA TTGACGGCTAGCTCAGTCCTAGGTATTGTGCTAGC; listed as DNA, chemistry not fully specified)”, which “Measured Strength” value [1] is on record?
Answer: 0.56

B1: drApoI (protein, UniProt P38483 1-229, looked up, variant E63Q)
C->U-editing enzyme APOBEC-1: MSSETGPVAVDPTLRRRIEPHEFEVFFDPRELRKETCLLYEINWGGRHSIWRHTSQNTNKHVQVNFIEKFTTERYFCPNTRCSITWFLSWSPCGECSRAITEFLSRYPHVTLFIYIARLYHHADPRNRQGLRDLISSGVTIQIMTEQESGYCWRNFVNYSPSNEAHWPRYPHLWVRLYVLELYCIILGLPPCLNILRRKQPQLTFFTIALQSCHYQRLPPHILWATGLK
Question: Which “Kan resistance Frequency” value [2, 6] does the source give for B1 here?
Answer: 3.8E−8

Question: And the “Kan resistant CFU/mL” value [2, 6]?
Answer: 6.0E+1 CFU/mL

Question: What about the “Kan resistance Frequency” value [2, 7] of the same molecule?
Answer: 5.2E−7

Question: And the “Kan resistant CFU/mL” value [2, 7]?
Answer: 6.5E+2 CFU/mL

Question: What about the “Kan resistance Frequency” value [2, 8] of the same molecule?
Answer: 6.6E−7

Question: And the “Kan resistant CFU/mL” value [2, 8]?
Answer: 1.2E+3 CFU/mL

Question: What about the “Tet resistance Frequency” value [3, 6] of the same molecule?
Answer: 1.1E−7

Question: And the “Tet resistant CFU/mL” value [3, 6]?
Answer: 1.8E+2 CFU/mL

Question: What about the “Tet resistance Frequency” value [3, 7] of the same molecule?
Answer: 4.6E−7

Question: And the “Tet resistant CFU/mL” value [3, 7]?
Answer: 6.3E+2 CFU/mL

Question: What about the “Tet resistance Frequency” value [3, 8] of the same molecule?
Answer: 2.1E−7

Question: What about the “Tet resistant CFU/mL” value [3, 8] of the same molecule?
Answer: 3.7E+2 CFU/mL

Question: What about the “Fos resistance Frequency” value (E. coli genome [4]; [6]) of the same molecule?
Answer: 2.0E−6

Question: What about the “Fos resistant CFU/mL” value (E. coli genome [4]; [6]) of the same molecule?
Answer: 3.3E+3 CFU/mL

Question: And the “Fos resistance Frequency” value (E. coli genome [4]; [7])?
Answer: 2.7E−6

Question: And the “Fos resistant CFU/mL” value (E. coli genome [4]; [7])?
Answer: 3.5E+3 CFU/mL

Question: And the “Fos resistance Frequency” value (E. coli genome [4]; [8])?
Answer: 1.9E−6

Question: And the “Fos resistant CFU/mL” value (E. coli genome [4]; [8])?
Answer: 3.4E+3 CFU/mL

Question: What about the “Rif resistance Frequency” value (E. coli genome [5]; [6]) of the same molecule?
Answer: 4.5E−7

Question: What about the “Rif resistant CFU/mL” value (E. coli genome [5]; [6]) of the same molecule?
Answer: 7.6E+2 CFU/mL

Question: What about the “Rif resistance Frequency” value (E. coli genome [5]; [7]) of the same molecule?
Answer: 3.0E−7

Question: And the “Rif resistant CFU/mL” value (E. coli genome [5]; [7])?
Answer: 4.0E+2 CFU/mL

Question: And the “Rif resistance Frequency” value (E. coli genome [5]; [8])?
Answer: 3.4E−7

Question: What about the “Rif resistant CFU/mL” value (E. coli genome [5]; [8]) of the same molecule?
Answer: 5.9E+2 CFU/mL

Question: What about the “Amp resistant CFU/mL (cell viability)” value (E. coli; [6]) of the same molecule?
Answer: 1.6E+9 CFU/mL

Question: And the “Amp resistant CFU/mL (cell viability)” value (E. coli; [7])?
Answer: 1.3E+9 CFU/mL

Question: What about the “Amp resistant CFU/mL (cell viability)” value (E. coli; [8]) of the same molecule?
Answer: 1.8E+9 CFU/mL
